Measured values from article PMC8698333.

Key:
[1] = biological target: human kappa opioid receptor fused to the alpha7 nicotinic signal peptide and eGFP (pcDNA3.1) (human) (UniProt P41145)
[2] = biological target: human kappa opioid receptor Tango construct (tTA-hKOR) (human) (UniProt P41145)
[3] = biological target: human kappa opioid receptor, stably expressed in CHO cells (hKOR-CHO) (human) (UniProt P41145)
Chain of human kappa opioid receptor, stably expressed in CHO cells (hKOR-CHO) (human) (P41145 whole entry): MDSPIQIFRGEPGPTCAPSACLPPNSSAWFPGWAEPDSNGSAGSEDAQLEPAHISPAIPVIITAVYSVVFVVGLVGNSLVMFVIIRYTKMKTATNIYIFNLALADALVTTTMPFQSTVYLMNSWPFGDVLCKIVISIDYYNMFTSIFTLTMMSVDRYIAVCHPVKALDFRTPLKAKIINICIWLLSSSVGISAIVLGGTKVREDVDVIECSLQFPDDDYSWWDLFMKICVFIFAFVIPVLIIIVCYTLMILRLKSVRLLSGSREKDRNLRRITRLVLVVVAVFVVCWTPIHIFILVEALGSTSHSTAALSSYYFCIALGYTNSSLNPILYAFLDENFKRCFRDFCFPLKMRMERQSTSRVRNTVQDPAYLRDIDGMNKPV

Chain of human kappa opioid receptor fused to the alpha7 nicotinic signal peptide and eGFP (pcDNA3.1) (human) (P41145 whole entry, the tested form may be a part): as the sequence (P41145 whole entry) above
Chain of human kappa opioid receptor Tango construct (tTA-hKOR) (human) (P41145 whole entry): as above

Row | Substance | TRUPATH (BRET) G-protein dissociation, Gα3 subunit: fold shift of EC50 against the mean of same day DynA WT controls [1] | PRESTO-Tango β-arrestin recruitment: fold shift of EC50 against the mean of same day DynA WT controls [2] | EC50 of [35S]GTPγS binding to hKOR-CHO cell membranes (G-protein activation) [3] | efficacy (maximal [35S]GTPγS binding to hKOR-CHO cell membranes) [3]
1 | Dynorphin A L5S mutant peptide | 7 fold shift | 13 fold shift | – | –
2 | Dynorphin A R6W mutant peptide | 11 fold shift | 16 fold shift | 105 nM | 1240 CPM
3 | Dynorphin A R9C mutant peptide | 3 fold shift | 5 fold shift | – | –
